{"source": "paper PMC5992339", "about": "“The Structure of an Infectious Human Polyomavirus and Its Interactions with Cellular Receptors” (Structure(London, England:1993), 2018)", "proteins": {"B1": {"name": "BK polyomavirus major capsid protein VP1 (natural protein)", "chain": "MAPTKRKGECPGAAPKKPKEPVQVPKLLIKGGVEVLEVKTGVDAITEVECFLNPEMGDPDENLRGFSLKLSAENDFSSDSPERKMLPCYSTARIPLPNLNEDLTCGNLLMWEAVTVQTEVIGITSMLNLHAGSQKVHEHGGGKPIQGSNFHFFAVGGEPLEMQGVLMNYRSKYPDGTITPKNPTAQSQVMNTDHKAYLDKNNAYPVECWVPDPSRNENARYFGTFTGGENVPPVLHVTNTATTVLLDEQGVGPLCKADSLYVSAADICGLFTNSSGTQQWRGLARYFKIRLRKRSVKNPYPISFLLSDLINRRTQRVDGQPMYGMESQVEEVRVFDGTERLPGDPDMIRYIDKQGQLQTKML", "notes": "Major capsid protein VP1 of BK polyomavirus, Dunlop strain, as it stands in the native virion made from the genome of plasmid pGEM7-Dunlop; the model is built up to Lys359 in chain 6, and the first 13 residues of chain 2 are not resolved; Protein of the native virion, with no tags and no truncation; The capsid is built from 72 pentons of VP1 (T = 7d); also called BKV VP1; chains 1-6 (the six …)"}}, "target": "the molecule itself", "test": "cryo-EM structure; purified native BKV virions (0.25 mg/ml) adsorbed on carbon-coated lacey grids in buffer A without Triton X-100; icosahedral reconstructions: unliganded 3.8 A, with 20 mM GT1b oligosaccharide 3.4 A, with heparin 10 mg/ml 3.6 A, with 5 mM DTT (reduced) 6.5 A", "data": [{"protein": "B1", "values": [{"measurement": "binding result", "result": "binds"}]}]}
